Assay results as given in publication PMC12412624, “Engineered Cas12j‐8 is a Versatile Platform for Multiplexed Genome Modulation in Mammalian Cells”.
Changes are numbered by the printed parent chain.

Experiments:
[1] = test system: T1, dCas12j-8 E258R+D313R+D495R+D527R+E547R E258R;D313R;D495R;D527R;E547R;D369A;E567A;D658A (bacteriophage (metagenome)); details: HEK293T cells; panel 1e (compare within a panel only); scale: mean GFP / mean GFP of wild type, printed, no background subtraction
T1 sequence: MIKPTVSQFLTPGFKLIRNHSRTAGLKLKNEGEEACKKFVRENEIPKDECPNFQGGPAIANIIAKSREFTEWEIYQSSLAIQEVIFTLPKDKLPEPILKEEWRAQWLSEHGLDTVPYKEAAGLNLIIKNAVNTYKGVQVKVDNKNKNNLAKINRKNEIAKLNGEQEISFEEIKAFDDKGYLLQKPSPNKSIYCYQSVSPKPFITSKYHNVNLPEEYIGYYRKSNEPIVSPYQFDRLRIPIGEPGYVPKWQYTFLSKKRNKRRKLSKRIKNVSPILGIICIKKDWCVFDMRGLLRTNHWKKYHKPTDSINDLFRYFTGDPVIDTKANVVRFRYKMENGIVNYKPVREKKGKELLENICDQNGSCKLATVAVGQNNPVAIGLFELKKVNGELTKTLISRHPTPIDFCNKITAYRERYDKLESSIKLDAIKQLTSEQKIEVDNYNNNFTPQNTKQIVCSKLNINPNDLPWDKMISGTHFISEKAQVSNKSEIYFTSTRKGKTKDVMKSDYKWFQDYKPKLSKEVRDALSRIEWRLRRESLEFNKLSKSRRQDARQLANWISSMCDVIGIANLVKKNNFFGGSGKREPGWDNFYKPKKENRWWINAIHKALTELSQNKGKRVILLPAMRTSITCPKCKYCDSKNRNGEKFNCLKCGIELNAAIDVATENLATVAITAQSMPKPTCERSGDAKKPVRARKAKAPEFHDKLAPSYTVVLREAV

[2] = test system: T2, dCas12j-8 E258R+D495R+D527R E258R;D495R;D527R;D369A;E567A;D658A (bacteriophage (metagenome)); details: HEK293T cells; panel 1e (compare within a panel only); scale: mean GFP / mean GFP of wild type, printed, no background subtraction
T2 sequence: T1 sequence with R313D, R547E

[3] = test system: T3, dCas12j-8 E258R+D527R E258R;D527R;D369A;E567A;D658A (bacteriophage (metagenome)); details: HEK293T cells; panel 1d (compare within a panel only); scale: mean GFP / mean GFP of wild type, printed, no background subtraction
T3 sequence: T1 sequence with R313D, R495D, R547E

CUUUCAAGACUAAUAGAUUGCUCCUUACGAGGAGACACUCCCUAUCAGUGAUAGAG / TTNACTCCCTATCAGTGATAGAG / CTCTATCACTGATAGGGAGTNAA [TetO]
binding signal [1]: 5.89 | binding signal [2]: 3.63 | binding signal [3]: 2.83
